Laboratory results: patent publication US20120045816A1, “Novel Glycosylated Polypeptides” (Sialix, Inc., priority 2008, published 2012)

What was measured:
[1] = Sialic acid quantity (DMB-HPLC); assay type: physicochemical
Procedure: DMB-HPLC. Samples were subjected to base treatment with 0.1 M NaOH (final) at 37° C. for 30 min to remove O-acetyl esters, and the sialic acids were released by acid hydrolysis with 2 M acetic acid (final), at 80° C. for 3 hours. Samples were passed through Microcon-10 columns (20 min, 10000×g; Millipore), derivatized with 1,2-diamino-4,5-methyl dioxybenzene (DMB), and analyzed by HPLC as described^9 in Hara et al., 1986, J. Chromatography 377:111-119. Measured values of non acid-treated controls (free sialic acids) were subtracted.
(§1) Sialic Acid Quantity. The levels of Sialic acids on the therapeutic antibodies (TAbs) Cet and Pan were determined. […] Cet and Pan (1 μg each) were separated by SDS-PAGE and Coomassie stained or blotted (see FIG. 1B). […] The absorbance was measured at 405 nm.

[2] = tested on: anti-Neu5Gc antibodies from whole human sera; assay: Direct binding of anti-Neu5Gc antibodies from whole human sera to Fab fragments (ELISA); settings: serum S34; Fab fragments 1 μg/well; FIG. 2C
Procedure: Direct binding of anti-Neu5Gc antibodies from whole human sera to the glycosylated polypeptides, Cet and Pan, was evaluated. […] Fab fragments (1 μg/well) were used as target molecules in ELISA. Sialic acid specific binding was determined with sodium metaperiodate treatment. Wells were then blocked and incubated with human sera (S30 and S34 with low and high anti-Neu5Gc IgG titers, respectively, from Ref. 7).

[3] = tested on: anti-Neu5Gc antibodies in human serum; assay: CIC-C1q binding assay, immune complex formation in whole human serum; settings: 40 μg antibody in 100 μl serum, FIG. 1F
Procedure: CIC-C1q Binding Assay. […] 1:50 dilutions of the mix were applied to human C1 q coated ELISA wells, and incubated for 1 h at 25° C. […] The absorbance was measured at 405 nm. Samples were studied in triplicate.
as §1

[4] = tested on: affinity-purified chicken anti-Neu5Gc IgY; assay: ELISA detection of Neu5Gc on Cetuximab and Panitumumab; assay type: binding; settings: 1 μg antibody per well; FIG. 1A
Excerpt: Sialidase Treatment of Cet and Pan. […] Samples were used for ELISA or Western Blots.
ELISA samples were studied at least in triplicate. […] Samples were studied in triplicate.
ELISA We first did ELISA assays using an affinity-purified polyclonal chicken anti-Neu5Gc antibody preparation that is highly mono-specific for Neu5Gc^5, alongside a non-reactive control IgY.

CHO cells = assay: Reduction of Neu5Gc contamination in CHO cells by feeding Neu5Ac; assay type: cell-based, Chinese Hamster; settings: 5 mM Neu5Ac in medium; DMB-HPLC and Western blot; FIG. 3C-E
Procedure: Reduction of Neu5Gc Contamination in Glycosylated polypeptides in CHO Cells. A similar approach was taken to CHO cells stably expressing a Siglec-Fc protein in the medium, except that the Neu5Gc pulse was omitted, and the secreted glycoproteins were captured on Protein-A Sepharose beads. The cells were also processed similarly, except that total cell membranes were pelleted by centrifugation. The Sias content of the secreted proteins and cell membranes was determined by acid hydrolysis, DMB derivatization and HPLC. The cell membranes were also studied for NueSGc content by Western-blotting with the chicken anti-Neu5Gc IgY, as described above.
Free Neu5Ac in Non-Human CHO Cell Culture Medium Reduces Neu5Gc Contamination. However, many recombinant glycosylated polypeptides are currently produced in non-human cells, e.g., Chinese Hamster Ovary (CHO) cell lines. Glycosylated polypeptide produced in CHO cells carry small amounts of Neu5Gc^19,5. […] The individually collected media was centrifuged to remove cell debris and adjusted to 5 mM Tris-HCl pH 8. The fusion protein was purified using Protein-A Sepharose. Sialic acid content was determined by DMB-HPLC analysis (FIG. 3C). The area under each peak was obtained and the percent of Neu5Gc in each sample was determined relative to Neu5Ac. Total cell membranes from the same CHO cells were prepared and used for DMB-HPLC analysis (FIG. 3D). […]

Human 293T cells = assay: Reduction of Neu5Gc contamination in 293T human kidney cells by Neu5Ac chase; assay type: cell-based; settings: 5 mM Neu5Ac chase after 5 mM Neu5Gc for 3 days; HPLC; FIG. 3A-B
Procedure: Reduction of Neu5Gc Contamination in Glycosylated Polypeptides in 293T Human Kidney Cells. 293T human kidney cells were grown in DME supplemented with 10% FCS. Cells were lifted from culture plate using 20 mM EDTA in PBS and allowed to grow to 50% confluence. Buffered 100 mM Neu5Gc was added to the culture in duplicate at a final 5 mM concentration, and the cells were grown in this supplemented media for 3 days. At the end of this Neu5Gc pulse, the cells were once again lifted using 20 mM EDTA in PBS, pelleted, washed once with PBS to remove any excess Neu5Gc and then suspended in 30 ml of growth medium. Five ml of this cell suspension was added to each of […]. The last aliquot of cell suspension, time “0”, was immediately harvested by pelleting the cells, washing once with PBS, followed by suspending the cells in 1 ml of PBS and transferring to a 1.5 ml microcentrifuge tube. The cells were re-pelleted and frozen until all time points were collected. […]
Free Neu5Ac in Human 293T Cell Culture Medium Reduces Neu5Gc Contamination. […] Cells were harvested as described above, and the Neu5Gc and Neu5Ac content of both the ethanol soluble (FIG. 3A) and ethanol precipitable proteins (FIG. 3B) was analyzed by HPLC. […]

Row | Compound | Share of Neu5Gc in the Sias [1] [%] | Sias carried by the antibody [1] [mol/mol] | Mild periodate sensitive binding of serum IgG to Fab fragments, high anti-Neu5Gc titer serum [2] | Immune complex formation, low titer human serum ([3]; serum S30) | Immune complex formation, human serum with high levels of anti-Neu5Gc antibodies ([3]; serum S34) | Bound Neu5Gc detected by chicken anti-Neu5Gc IgY (ELISA) [4] | Effect on Neu5Gc of membrane glycoproteins and a secreted recombinant protein (CHO cells) | Effect on Neu5Gc content of cells preloaded with Neu5Gc (Human 293T cells)
1 | Panitumumab: fully human antibody against the EGF receptor produced in Chinese Hamster Ovary cells | < 0.1 | 0.22 | not to those of Panitumumab | no detectable immune complex formation | no detectable immune complex formation | not on Panitumumab | – | –
2 | CC(=O)N[C@H]1[C@H]([C@H](O)[C@H](O)CO)OC(O)(C(=O)O)C[C@@H]1O (some centres unmarked) [Neu5Ac, N-acetylneuraminic acid] | – | – | – | – | – | – | reduces Neu5Gc in CHO cells | more rapid disappearance of ethanol-precipitable (glycosidically-bound) Neu5Gc
